# According to paper PMC3087855 (Nature structural & molecular biology, 2011):
# Molecular target: the molecule itself
# Assay: crystal structure
protein,measurement,value
"bacteriophage P22 portal protein core (residues 1-602) (domain or fragment, UniProt P26744 1-602, looked up, selenomethionine derivatized (methionines replaced by selenomethionine)) MADNENRLESILSRFDADWTASDEARREAKNDLFFSRVSQWDDWLSQYTTLQYRGQFDVVRPVVRKLVSEMRQNPIDVLYRPKDGARPDAADVLMGMYRTDMRHNTAKIAVNIAVREQIEAGVGAWRLVTDYEDQSPTSNNQVIRREPIHSACSHVIWDSNSKLMDKSDARHCTVIHSMSQNGWEDFAEKYDLDADDIPSFQNPNDWVFPWLTQDTIQIAEFYEVVEKKETAFIYQDPVTGEPVSYFKRDIKDVIDDLADSGFIKIAERQIKRRRVYKSIITCTAVLKDKQLIAGEHIPIVPVFGEWGFVEDKEVYEGVVRLTKDGQRLRNMIMSFNADIVARTPKKKPFFWPEQIAGFEHMYDGNDDYPYYLLNRTDENSGDLPTQPLAYYENPEVPQANAYMLEAATSAVKEVATLGVDTEAVNGGQVAFDTVNQLNMRADLETYVFQDNLATAMRRDGEIYQSIVNDIYDVPRNVTITLEDGSEKDVQLMAEVVDLATGEKQVLNDIRGRYECYTDVGPSFQSMKQQNRAEILELLGKTPQGTPEYQLLLLQYFTLLDGKGVEMMRDYANKQLIQMGVKKPETPEEQQWLVEAQQAKQG",stoichiometry N,12
